± gives the standard deviation of the averaged measurements.
System: ATP
Assay: switch fluorescence ratio, 500 uM ATP over buffer (Cy3 cluster intensity, sum of 5 cycles each) (fold (ratio)); higher = stronger signal-on switching upon ATP binding; sequences stand for … in TCGTCGGCAGCGTCAGATGTGTATAAGAGACAGTTTTTTTTTTTTTTTTTTTTTTTTT…TC
Conditions: aptamer strand: ATP DNA aptamer (quencher-CACCTGGGGGAGTATTGCGGAGGAAGG + anchor), 100 nM annealed; ATP concentration: 500 uM
Procedure, shortened: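 Exposure to 500 uM ATP lasted 15 min at 22 °C before imaging, and a selection-buffer image was taken beforehand, for Cy3-labelled switching-strand clusters on a modified Illumina MiSeq flow-cell annealed to 100 nM quencher-labelled ATP aptamer. Five buffer/ATP cycles were run with NaOH stripping and re-annealing between them. The fluorescence ratio per cluster is summed target-cycle over summed buffer-cycle Cy3 intensity, averaged per switch-domain sequence. Clusters outside 100-1000 RFU were excluded.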

For TGGCTTAACG, the switch fluorescence ratio was 0.961 ± 0.0041.
For TGGCTTTTAA, the switch fluorescence ratio was 1.013 ± 0.007.
With TGGGAAAATC the switch fluorescence ratio was 1.63 ± 0.81.
For TGGGAAAGGG, the switch fluorescence ratio was 1.01 ± 0.036.
TGGGAAATAG gave a switch fluorescence ratio of 0.9957 ± 0.0041.
TGGGAAATGG was tested, and the switch fluorescence ratio was 1 ± 0.024.
With TGGGAACCAG the switch fluorescence ratio was 0.999 ± 0.015.
Work on TGGGAACGCG yielded a switch fluorescence ratio of 1.003 ± 0.0076.
Work on TGGGAAGAAT yielded a switch fluorescence ratio of 0.99323 ± 0.00037.
Work on TGGGAAGACC yielded a switch fluorescence ratio of 1.02 ± 0.025.
With TGGGAAGAGA the switch fluorescence ratio was 1.02 ± 0.018.
For TGGGAAGGGA, the switch fluorescence ratio was 1.2 ± 0.37.
TGGGAAGGGT gave a switch fluorescence ratio of 0.996 ± 0.059.
For TGGGAAGGTA, the switch fluorescence ratio was 0.999 ± 0.029.
Work on TGGGAATATC yielded a switch fluorescence ratio of 1.05 ± 0.028.
TGGGACACAG was tested, and the switch fluorescence ratio was 1.004 ± 0.007.
For TGGGACATGT, the switch fluorescence ratio was 1.02 ± 0.019.
For TGGGACCGCG, the switch fluorescence ratio was 1.03 ± 0.084.
Work on TGGGACGGTA yielded a switch fluorescence ratio of 1 ± 0.022.
TGGGAGACAA gave a switch fluorescence ratio of 0.9815 ± 0.001.
TGGGAGCAGC showed a switch fluorescence ratio of 1.02 ± 0.038.
TGGGAGCCTG was tested, and the switch fluorescence ratio was 0.987 ± 0.015.
Sequence TGGGAGGGAT has a switch fluorescence ratio of 0.989 ± 0.021.
Work on TGGGAGGGGC yielded a switch fluorescence ratio of 1.01 ± 0.021.
TGGGAGTATT was tested, and the switch fluorescence ratio was 0.9815 ± 0.0069.
For TGGGAGTCGC, the switch fluorescence ratio was 0.97 ± 0.027.
In the case of TGGGATAAAA, the switch fluorescence ratio is reported as 1.01 ± 0.044.
With TGGGATAACT the switch fluorescence ratio was 0.99 ± 0.038.
TGGGATAGTT gave a switch fluorescence ratio of 1.024 ± 0.0069.
In the case of TGGGATCGAG, the switch fluorescence ratio is reported as 0.9719 ± 0.0032.
For TGGGATCGTT, the switch fluorescence ratio was 0.98 ± 0.015.
For TGGGATGCGT, the switch fluorescence ratio was 0.988 ± 0.015.
TGGGATGGGA gave a switch fluorescence ratio of 1 ± 0.024.
With TGGGATGTTT the switch fluorescence ratio was 0.982 ± 0.026.
With TGGGATTAGA the switch fluorescence ratio was 1.021 ± 0.008.
With TGGGATTATC the switch fluorescence ratio was 1.02 ± 0.027.
For TGGGATTCCC, the switch fluorescence ratio was 1.01 ± 0.017.
Sequence TGGGATTGAA has a switch fluorescence ratio of 0.9806 ± 0.0079.
TGGGCAGAAG gave a switch fluorescence ratio of 0.9744 ± 0.0053.
In the case of TGGGCAGGAT, the switch fluorescence ratio is reported as 1.01 ± 0.041.
In the case of TGGGCATTGG, the switch fluorescence ratio is reported as 1.01 ± 0.018.
TGGGCGCAGT gave a switch fluorescence ratio of 0.986 ± 0.012.
In the case of TGGGCGTTTA, the switch fluorescence ratio is reported as 1.04 ± 0.026.
For TGGGCTCTTT, the switch fluorescence ratio was 1 ± 0.019.
TGGGCTGCGG gave a switch fluorescence ratio of 0.974 ± 0.04.
TGGGCTTATC was tested, and the switch fluorescence ratio was 1.012 ± 0.0097.
TGGGGAAACT was tested, and the switch fluorescence ratio was 1.15 ± 0.23.
TGGGGAACAA was tested, and the switch fluorescence ratio was 1 ± 0.055.
TGGGGAATAT gave a switch fluorescence ratio of 1.18 ± 0.38.
TGGGGAATGG showed a switch fluorescence ratio of 1 ± 0.05.
TGGGGACGTT gave a switch fluorescence ratio of 0.971 ± 0.056.
With TGGGGAGCAA the switch fluorescence ratio was 1.73 ± 0.074.
For TGGGGAGTGG, the switch fluorescence ratio was 1.02 ± 0.065.
Sequence TGGGGAGTTA has a switch fluorescence ratio of 0.992 ± 0.021.
TGGGGATCGT gave a switch fluorescence ratio of 0.982 ± 0.026.
Sequence TGGGGATCTA has a switch fluorescence ratio of 1.002 ± 0.006.
TGGGGATCTG showed a switch fluorescence ratio of 0.985 ± 0.03.
TGGGGATCTT gave a switch fluorescence ratio of 0.972 ± 0.057.
In the case of TGGGGATGAT, the switch fluorescence ratio is reported as 1 ± 0.022.
With TGGGGATTAC the switch fluorescence ratio was 0.983 ± 0.012.
For TGGGGATTCC, the switch fluorescence ratio was 1.01 ± 0.016.
TGGGGATTGA showed a switch fluorescence ratio of 1 ± 0.03.
TGGGGATTTC showed a switch fluorescence ratio of 1.1 ± 0.16.
Sequence TGGGGATTTG has a switch fluorescence ratio of 0.99 ± 0.032.
TGGGGCCCGG was tested, and the switch fluorescence ratio was 0.984 ± 0.019.
Sequence TGGGGCCTGG has a switch fluorescence ratio of 1.1 ± 0.23.
Work on TGGGGCCTGT yielded a switch fluorescence ratio of 0.978 ± 0.023.
With TGGGGCGGGG the switch fluorescence ratio was 0.983 ± 0.018.
Sequence TGGGGCGGTG has a switch fluorescence ratio of 1.001 ± 0.0085.
For TGGGGCGTAT, the switch fluorescence ratio was 1.04 ± 0.039.
For TGGGGCTACA, the switch fluorescence ratio was 0.983 ± 0.056.
In the case of TGGGGCTACC, the switch fluorescence ratio is reported as 1.06 ± 0.093.
In the case of TGGGGCTCAG, the switch fluorescence ratio is reported as 0.986 ± 0.027.
For TGGGGCTTCG, the switch fluorescence ratio was 0.92 ± 0.077.
With TGGGGCTTGA the switch fluorescence ratio was 0.9684 ± 0.005.
TGGGGG was tested, and the switch fluorescence ratio was 1 ± 0.033.
TGGGGGAAAG was tested, and the switch fluorescence ratio was 0.993 ± 0.026.
TGGGGGAACA was tested, and the switch fluorescence ratio was 0.989 ± 0.018.
With TGGGGGAAGG the switch fluorescence ratio was 1.03 ± 0.061.
TGGGGGACCT gave a switch fluorescence ratio of 1.09 ± 0.1.
For TGGGGGACTA, the switch fluorescence ratio was 0.967 ± 0.033.
TGGGGGATTG gave a switch fluorescence ratio of 0.987 ± 0.031.
For TGGGGGCACA, the switch fluorescence ratio was 1.0343 ± 0.00026.
Work on TGGGGGCCTG yielded a switch fluorescence ratio of 0.99 ± 0.033.
Work on TGGGGGCCTT yielded a switch fluorescence ratio of 1.02 ± 0.053.
Work on TGGGGGCGGC yielded a switch fluorescence ratio of 1.046 ± 0.0061.
In the case of TGGGGGGCCA, the switch fluorescence ratio is reported as 1 ± 0.027.
With TGGGGGGCGG the switch fluorescence ratio was 1.02 ± 0.03.
With TGGGGGGGAT the switch fluorescence ratio was 0.993 ± 0.026.
Work on TGGGGGGGGA yielded a switch fluorescence ratio of 1.02 ± 0.036.
Work on TGGGGGGGTC yielded a switch fluorescence ratio of 0.988 ± 0.048.
TGGGGGGTCA gave a switch fluorescence ratio of 0.993 ± 0.02.
In the case of TGGGGGGTGC, the switch fluorescence ratio is reported as 1.13 ± 0.4.
In the case of TGGGGGTATA, the switch fluorescence ratio is reported as 1.03 ± 0.06.
For TGGGGGTCAT, the switch fluorescence ratio was 1.05 ± 0.061.
TGGGGGTCCC was tested, and the switch fluorescence ratio was 0.991 ± 0.017.
For TGGGGGTCTA, the switch fluorescence ratio was 0.971 ± 0.031.
TGGGGGTT gave a switch fluorescence ratio of 0.997 ± 0.032.
In the case of TGGGGGTTAC, the switch fluorescence ratio is reported as 1.08 ± 0.13.
In the case of TGGGGGTTCG, the switch fluorescence ratio is reported as 0.99 ± 0.035.

From the supplement of paper PMC10126150
